The supplement of paper PMC10126150
± gives the standard deviation of the averaged measurements.

Tested on: ATP
Assay: switch fluorescence ratio, 500 uM ATP over buffer (Cy3 cluster intensity, sum of 5 cycles each) (fold (ratio)); higher = stronger signal-on switching upon ATP binding; sequences stand for … in TCGTCGGCAGCGTCAGATGTGTATAAGAGACAGTTTTTTTTTTTTTTTTTTTTTTTTT…TC
Conditions: aptamer strand: ATP DNA aptamer (quencher-CACCTGGGGGAGTATTGCGGAGGAAGG + anchor), 100 nM annealed; ATP concentration: 500 uM
Summary of the method: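 Cy3-labelled switching-strand clusters on a modified Illumina MiSeq flow-cell were annealed to 100 nM quencher-labelled ATP aptamer, imaged in selection buffer, then imaged after 15 min with 500 uM ATP at 22 °C. Five buffer/ATP cycles ran, with NaOH stripping and re-annealing between them. The fluorescence ratio is summed target-cycle over summed buffer-cycle Cy3 intensity per cluster, averaged per switch-domain sequence. Clusters outside 100-1000 RFU were excluded.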
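Further: ATP exposure 15 min at 22 °C before imaging.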

## AGGGAGATTT
  switch fluorescence ratio: 0.99 ± 0.03

## AGGGAGCCCG
  switch fluorescence ratio: 1.01 ± 0.036

## AGGGAGCTCC
  switch fluorescence ratio: 1.01 ± 0.025

## AGGGAGGAGC
  switch fluorescence ratio: 0.923 ± 0.045

## AGGGAGGGGT
  switch fluorescence ratio: 0.983 ± 0.021

## AGGGAGTTAT
  switch fluorescence ratio: 1 ± 0.0014

## AGGGATACTG
  switch fluorescence ratio: 1.072 ± 0.0048

## AGGGATCCTT
  switch fluorescence ratio: 1.02 ± 0.031

## AGGGATTAGC
  switch fluorescence ratio: 0.988 ± 0.015

## AGGGCAAAAT
  switch fluorescence ratio: 1.02 ± 0.035

## AGGGCAAGAG
  switch fluorescence ratio: 1.38 ± 0.054

## AGGGCAAGTG
  switch fluorescence ratio: 0.996 ± 0.034

## AGGGCAAGTT
  switch fluorescence ratio: 1.01 ± 0.064

## AGGGCAGAGG
  switch fluorescence ratio: 0.98599 ± 0.00021

## AGGGCAGCGG
  switch fluorescence ratio: 1.03 ± 0.033

## AGGGCAGTAT
  switch fluorescence ratio: 1.06 ± 0.11

## AGGGCCGGCG
  switch fluorescence ratio: 1 ± 0.031

## AGGGCGCGGA
  switch fluorescence ratio: 1.05 ± 0.016

## AGGGCGCGTT
  switch fluorescence ratio: 0.9645 ± 0.0028

## AGGGCGGTCA
  switch fluorescence ratio: 0.996 ± 0.025

## AGGGCGTATT
  switch fluorescence ratio: 0.974 ± 0.026

## AGGGCGTCTG
  switch fluorescence ratio: 1.01 ± 0.058

## AGGGCTAGTA
  switch fluorescence ratio: 1 ± 0.034

## AGGGGAAGAC
  switch fluorescence ratio: 1.29 ± 0.41

## AGGGGAAGGG
  switch fluorescence ratio: 1.02 ± 0.012

## AGGGGAATGT
  switch fluorescence ratio: 0.979 ± 0.026

## AGGGGACTTG
  switch fluorescence ratio: 1.01 ± 0.06

## AGGGGAGACC
  switch fluorescence ratio: 0.9775 ± 0.0096

## AGGGGAGGAG
  switch fluorescence ratio: 0.974 ± 0.017

## AGGGGATAGC
  switch fluorescence ratio: 1.01 ± 0.017

## AGGGGATGGC
  switch fluorescence ratio: 0.946 ± 0.017

## AGGGGATTAC
  switch fluorescence ratio: 1.062 ± 0.0014

## AGGGGATTCA
  switch fluorescence ratio: 1.02 ± 0.02

## AGGGGATTTT
  switch fluorescence ratio: 1.04 ± 0.056

## AGGGGCAAAT
  switch fluorescence ratio: 1.01 ± 0.029

## AGGGGCAAGA
  switch fluorescence ratio: 1.04 ± 0.032

## AGGGGCACGA
  switch fluorescence ratio: 1.03 ± 0.024

## AGGGGCAGGA
  switch fluorescence ratio: 0.941 ± 0.06

## AGGGGCATAG
  switch fluorescence ratio: 1.007 ± 0.003

## AGGGGCCGGT
  switch fluorescence ratio: 1.01 ± 0.014

## AGGGGCGGGA
  switch fluorescence ratio: 0.962 ± 0.041

## AGGGGCTAGG
  switch fluorescence ratio: 0.983 ± 0.033

## AGGGGCTTAT
  switch fluorescence ratio: 1.01 ± 0.014

## AGGGGCTTGC
  switch fluorescence ratio: 0.956 ± 0.036

## AGGGGCTTTG
  switch fluorescence ratio: 1.03 ± 0.032

## AGGGGCTTTT
  switch fluorescence ratio: 0.998 ± 0.012

## AGGGGGAAGC
  switch fluorescence ratio: 1.02 ± 0.027

## AGGGGGACAG
  switch fluorescence ratio: 0.9761 ± 0.0039

## AGGGGGAGGG
  switch fluorescence ratio: 1.01 ± 0.03

## AGGGGGAGTA
  switch fluorescence ratio: 0.993 ± 0.027

## AGGGGGCCGC
  switch fluorescence ratio: 0.976 ± 0.087

## AGGGGGCCGT
  switch fluorescence ratio: 0.982 ± 0.042

## AGGGGGCTCT
  switch fluorescence ratio: 1.02 ± 0.029

## AGGGGGGAGT
  switch fluorescence ratio: 1.02 ± 0.031

## AGGGGGGATG
  switch fluorescence ratio: 0.992 ± 0.022

## AGGGGGGCCA
  switch fluorescence ratio: 1.02 ± 0.028

## AGGGGGGCTC
  switch fluorescence ratio: 0.98 ± 0.04

## AGGGGGGGA
  switch fluorescence ratio: 0.9821 ± 0.0079

## AGGGGGGGTA
  switch fluorescence ratio: 0.997 ± 0.033

## AGGGGGGGTT
  switch fluorescence ratio: 0.992 ± 0.033

## AGGGGGGTAT
  switch fluorescence ratio: 0.993 ± 0.027

## AGGGGGTAAT
  switch fluorescence ratio: 1.01 ± 0.049

## AGGGGGTCTA
  switch fluorescence ratio: 1.013 ± 0.0014

## AGGGGGTGTC
  switch fluorescence ratio: 1.075 ± 0.0097

## AGGGGGTTCG
  switch fluorescence ratio: 1.02 ± 0.027

## AGGGGTAAAG
  switch fluorescence ratio: 0.955 ± 0.021

## AGGGGTAAGG
  switch fluorescence ratio: 1.03 ± 0.033

## AGGGGTAAGT
  switch fluorescence ratio: 0.981 ± 0.011

## AGGGGTATGG
  switch fluorescence ratio: 0.998 ± 0.017

## AGGGGTCAGG
  switch fluorescence ratio: 1.022 ± 0.0055

## AGGGGTGAAA
  switch fluorescence ratio: 0.987 ± 0.021

## AGGGGTGATG
  switch fluorescence ratio: 0.9827 ± 0.001

## AGGGGTGGTC
  switch fluorescence ratio: 1.04 ± 0.017

## AGGGGTGTG
  switch fluorescence ratio: 1 ± 0.046

## AGGGGTTAAG
  switch fluorescence ratio: 0.954 ± 0.024

## AGGGGTTAAT
  switch fluorescence ratio: 0.985 ± 0.035

## AGGGGTTGTG
  switch fluorescence ratio: 1 ± 0.024

## AGGGGTTGTT
  switch fluorescence ratio: 1.07 ± 0.091

## AGGGGTTTGA
  switch fluorescence ratio: 1.01 ± 0.047

## AGGGTAAAGG
  switch fluorescence ratio: 0.989 ± 0.019

## AGGGTAATGG
  switch fluorescence ratio: 1.03 ± 0.021

## AGGGTATCTC
  switch fluorescence ratio: 1.08 ± 0.1

## AGGGTATGAT
  switch fluorescence ratio: 0.99 ± 0.025

## AGGGTATTTC
  switch fluorescence ratio: 1.02 ± 0.012

## AGGGTCCACG
  switch fluorescence ratio: 0.947 ± 0.015

## AGGGTCTGCG
  switch fluorescence ratio: 0.981 ± 0.025

## AGGGTCTGGG
  switch fluorescence ratio: 0.993 ± 0.034

## AGGGTGAATA
  switch fluorescence ratio: 1.005 ± 0.0027

## AGGGTGACAT
  switch fluorescence ratio: 0.999 ± 0.013

## AGGGTGACGG
  switch fluorescence ratio: 1.02 ± 0.031

## AGGGTGATTG
  switch fluorescence ratio: 1.009 ± 0.0077

## AGGGTGGAGC
  switch fluorescence ratio: 1.07 ± 0.092

## AGGGTGGCGC
  switch fluorescence ratio: 1.02 ± 0.021

## AGGGTGGCGT
  switch fluorescence ratio: 0.9459 ± 0.0075

## AGGGTGGCTA
  switch fluorescence ratio: 1.011 ± 0.0015

## AGGGTGTGGT
  switch fluorescence ratio: 0.9841 ± 0.0039

## AGGGTGTTTT
  switch fluorescence ratio: 1.01 ± 0.028

## AGGGTTAATG
  switch fluorescence ratio: 1.05 ± 0.017

## AGGGTTACTG
  switch fluorescence ratio: 1.04 ± 0.068

## AGGGTTAGTG
  switch fluorescence ratio: 0.979 ± 0.012
